Holding throughout (experiment): purified protein
Substrate in data set [1]: COc1ccccc1O
The settings on record: citrate-phosphate buffer, optimum pH 3.5, 25 °C stated for activity assay.

Substrate in data set [2]: CCn1c(=NN=c2sc3cc(S(=O)(=O)O)ccc3n2CC)sc2cc(S(=O)(=O)O)ccc21
Type of data set: biochemical, Pleurotus ostreatus. The settings on record: citrate-phosphate buffer, optimum pH 3.0, 25 °C stated for activity assay.

Substrate in data set [3]: COc1cccc(OC)c1O
Type of data set: biochemical, Pleurotus ostreatus. The settings on record: citrate-phosphate buffer, optimum pH 3.0, 25 °C stated for activity assay.

B1: Recombinant laccase X33-Lac-2 (Pleurotus ostreatus) (protein)
chain: AIGPAGNMYIVNEDVSPDGFARSAVVARSVPATDPTPATASIPGVLVQGNKGDNFQLNVVNQLSDTTMLKTTSIHWHGFFQAGSSWADGPAFVTQCPVASGDSFLYNFNVPDQAGTFWYHSHLSTQYCDGLRGPFVVYDPSDPHLSLYDIDNADTVITLEDWYHIVAPQNAAIPTPDSTLINGKGRYAGGPTSPLAIINVESNKRYRFRLVSMSCDPNFTFSIDGHSLLVIEADAVNIVPITVDSIQIFAGQRYSFVLTANQAVDNYWIRANPNLGSTGFVGGINSAILRYAGATEDDPTTTSSTSTPLLETNLVPLENPGAPGPPVPGGADININLAMAFDFTTFELTINGVPFLPPTAPVLLQILSGASTAASLLPSGSIYELEANKVVEISMPALAVGGPHPFHLHGHTFDVIRSAGSTTYNFDTPARRDVVNTGTGANDNVTIRFVTDNPGPWFLHCHIDWHLEIGLAVVFAEDVTSISAPPAAWDDLCPIYNALSDNDKGGIVPS
notes: about 57 kDa on SDS-PAGE
The Km is the concentration of substrate that gives half-maximal velocity. Broadly, the kcat is the maximal rate divided by the concentration of active sites. A word on the kcat/Km: it is the turnover number divided by the Michaelis constant. In the case of B1, the Km in the data set “purified protein [1]” was 302.4 ± 26.0 µM. Besides, in the data set “purified protein [2]”, the Km is 13.6 ± 2.9 µM, the kcat was 311 ± 21 s⁻¹ and the kcat/Km was found to be 2.28e+07 M⁻¹ s⁻¹. Besides, in “purified protein [3]”, the Km is 79.2 ± 18.3 µM, the kcat amounted to 19.8 ± 1.1 s⁻¹ and the kcat/Km came to 250000 M⁻¹ s⁻¹.
